Experiment [1] addresses T1, DNA-Binding Protein from Starved Cells (Dps) of Campylobacter jejuni (Campylobacter jejuni, UniProt Q0P891 1-149).
T1 construct: also called Dps of C. jejuni
As to the kind of experiment: sandwich immunochromatographic strip, immobilized CL30Camp and labeled CL30Camp, Dps at 1.85 ng/mL, read by eye after 10 min.

For experiment [2], the target named is T2, DNA-Binding Protein from Starved Cells (Dps) of Campylobacter coli (Campylobacter coli).
T2 construct: also called Dps of C. coli
As to the kind of experiment: sandwich immunochromatographic strip, immobilized CL30Camp and labeled CL30Camp, Dps at 0.75 ng/mL, read by eye after 10 min (+/- = weak positive response).

B1: CL30Camp monoclonal antibody (antibody, V domains shown)
VH: QVQLKQSGPGLVQPSQSLSITCTVSGFSLTSSGVHWVRQSPGKGLEWLGVIWRGGSTDYNAAFMSRLSITKDNSKSQVFFKMNSLQPDDTAIYYCAKNYYYGTSPDYFDYWGQGTTLTVSS
VL: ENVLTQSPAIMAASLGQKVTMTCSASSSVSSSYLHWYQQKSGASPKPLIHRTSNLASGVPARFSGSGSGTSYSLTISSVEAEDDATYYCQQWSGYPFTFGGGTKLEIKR
notes: also called CL30Camp/CL30Camp (immobilized/labeled pair in the test device)
Take B1: the binding result in experiment [1] and in experiment [2] was “binds” throughout.

(Values after US20200317756A1 (CERTEST BIOTEC S L, published 2020).)
